Biological target: T1, human Nectin-4 extracellular antigen hNectin-4-His (human, UniProt Q96NY8 32-349)
T1 construct: C-terminal 8xHis tag included
T1 sequence: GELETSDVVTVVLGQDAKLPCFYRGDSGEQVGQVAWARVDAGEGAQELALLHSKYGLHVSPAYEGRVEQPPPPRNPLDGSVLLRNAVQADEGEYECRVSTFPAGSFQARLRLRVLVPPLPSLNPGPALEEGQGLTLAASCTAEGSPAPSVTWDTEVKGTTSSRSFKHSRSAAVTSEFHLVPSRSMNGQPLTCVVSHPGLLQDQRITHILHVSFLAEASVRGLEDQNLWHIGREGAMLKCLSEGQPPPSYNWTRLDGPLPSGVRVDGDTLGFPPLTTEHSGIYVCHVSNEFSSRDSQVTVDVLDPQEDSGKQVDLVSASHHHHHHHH
Experiment: ELISA, phage scFv supernatant 1:50

Binder | OD value
10F4-2G2 scFv (scFv, V domains shown, phage clone supernatant) VH: EVQLVESGGGLVQPGGSLRLSCAASGYNFTDYDMSWVRQAPGKGLEWVSSIIASGSGNYYADSVKGRFTISRDNSKNTLYLQMNSLRAEDTAVYYCAREYSDVVDYVSVRTPLDYWGQGTLVTVSS VL: DIQMTQSPSSLSASVGDRVTITCRASQGISSYLAWYQQKPGKAPKLLIYAASSLQSGVPSRFSGSGSGTDFTLTISSLQPEDFATYYCQQHYTTPPTFGQGTKVEIKR | 1.49 OD
10F4-1E1 scFv (scFv, V domains shown, phage clone supernatant) VH: EVQLVESGGGLVQPGGSLRLSCAASGDIFGNYWMSWVRQAPGKGLEWVSSIDASSGNRFYADSVKGRFTISRDNSKNTLYLQMNSLRAEDTAVYYCAREYSDVVDYVSVRTPLDYWGQGTLVTVSS VL: DIQMTQSPSSLSASVGDRVTITCRASQGISSYLAWYQQKPGKAPKLLIYAASSLQSGVPSRFSGSGSGTDFTLTISSLQPEDFATYYCQQHYTTPPTFGQGTKVEIKR | 1.63 OD
10F4-1F1 scFv (scFv, V domains shown, phage clone supernatant) VH: EVQLVESGGGLVQPGGSLRLSCAASGFSFSNYWMSWVRQAPGKGLEWVSAISPGDGTIFYADSVKGRFTISRDNSKNTLYLQMNSLRAEDTAVYYCAREYSDVVDYVSVRTPLDYWGQGTLVTVSS VL: DIQMTQSPSSLSASVGDRVTITCRASQGISSYLAWYQQKPGKAPKLLIYAASSLQSGVPSRFSGSGSGTDFTLTISSLQPEDFATYYCQQHYTTPPTFGQGTKVEIKR | 1.63 OD
10F4-1C7 scFv (scFv, V domains shown, phage clone supernatant) VH: EVQLVESGGGLVQPGGSLRLSCAASGDSFDNYWMSWVRQAPGKGLEWVSAIDTHSDNSFYADSVKGRFTISRDNSKNTLYLQMNSLRAEDTAVYYCAREYSDVVDYVSVRTPLDYWGQGTLVTVSS VL: DIQMTQSPSSLSASVGDRVTITCRASQGISSYLAWYQQKPGKAPKLLIYAASSLQSGVPSRFSGSGSGTDFTLTISSLQPEDFATYYCQQHYTTPPTFGQGTKVEIKR | 1.57 OD
10F4-1B9 scFv (scFv, V domains shown, phage clone supernatant) VH: EVQLVESGGGLVQPGGSLRLSCAASGFNFDNYYMSWVRQAPGKGLEWVSSIYQTDASIFYADSVKGRFTISRDNSKNTLYLQMNSLRAEDTAVYYCAREYSDVVDYVSVRTPLDYWGQGTLVTVSS VL: DIQMTQSPSSLSASVGDRVTITCRASQGISSYLAWYQQKPGKAPKLLIYAASSLQSGVPSRFSGSGSGTDFTLTISSLQPEDFATYYCQQHYTTPPTFGQGTKVEIKR | 1.5 OD
10F4-3 scFv (scFv, V domains shown, phage clone supernatant) VH: EVQLVESGGGLVQPGGSLRLSCAASGFSFGDFAMSWVRQAPGKGLEWVSVIDGHTAYNSYADSVKGRFTISRDNSKNTLYLQMNSLRAEDTAVYYCAREYSDVVDYVSVRTPLDYWGQGTLVTVSS VL: DIQMTQSPSSLSASVGDRVTITCRASQGISSYLAWYQQKPGKAPKLLIYAASSLQSGVPSRFSGSGSGTDFTLTISSLQPEDFATYYCQQHYTTPPTFGQGTKVEIKR | 1.32 OD
10F4-2H5 scFv (scFv, V domains shown, phage clone supernatant) VH: EVQLVESGGGLVQPGGSLRLSCAASGYIFTNYWMSWVRQAPGKGLEWVSSIDQGSGNIFYADSVKGRFTISRDNSKNTLYLQMNSLRAEDTAVYYCAREYSDVVDYVSVRTPLDYWGQGTLVTVSS VL: DIQMTQSPSSLSASVGDRVTITCRASQGISSYLAWYQQKPGKAPKLLIYAASSLQSGVPSRFSGSGSGTDFTLTISSLQPEDFATYYCQQHYTTPPTFGQGTKVEIKR | 1.44 OD
10F4-5 scFv (scFv, V domains shown, phage clone supernatant) VH: EVQLVESGGGLVQPGGSLRLSCAASGFIFDGYDMSWVRQAPGKGLEWVSVIKDHGGYKFYADSVKGRFTISRDNSKNTLYLQMNSLRAEDTAVYYCAREYSDVVDYVSVRTPLDYWGQGTLVTVSS VL: DIQMTQSPSSLSASVGDRVTITCRASQGISSYLAWYQQKPGKAPKLLIYAASSLQSGVPSRFSGSGSGTDFTLTISSLQPEDFATYYCQQHYTTPPTFGQGTKVEIKR | 1.31 OD

Reference: patent publication US20260144882A1 (BIO THERA SOLUTIONS, published 2026)
